Here are results for one substance from paper PMC11209011.

For one assay, the target named is Δ2 CD55 IRES GFP. The experiment in a line: flow cytometry on cells.
Assay [1] concerns the target recombinant Fc-tagged CD55 (UniProt P08174). Description: SPR; Biacore T200, 25°C; CD55-Fc immobilized on a Protein G chip, tetramers or monomers as analyte; 150mM NaCl, 0.05% BSA, 0.05% Tween-20, pH 7,5; KD calculated from kon and koff; biological duplicate.
UniProt P08174, sequence (P08174 35-353): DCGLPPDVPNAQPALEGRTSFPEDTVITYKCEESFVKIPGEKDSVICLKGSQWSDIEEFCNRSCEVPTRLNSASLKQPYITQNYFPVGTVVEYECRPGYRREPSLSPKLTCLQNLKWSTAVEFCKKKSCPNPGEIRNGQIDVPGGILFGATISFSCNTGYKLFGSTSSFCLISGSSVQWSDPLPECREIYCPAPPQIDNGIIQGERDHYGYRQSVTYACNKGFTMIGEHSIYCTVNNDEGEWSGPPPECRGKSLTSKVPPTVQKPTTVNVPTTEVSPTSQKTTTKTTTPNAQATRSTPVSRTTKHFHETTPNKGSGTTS

The term Kd denotes the equilibrium constant for the complex coming apart. For the substance “HLA-C∗07:01-VRIG tetramer (from UniProt P61769 21-119) (peptide-MHC)”, the reduction of the interaction against full length CD55 with Δ2 CD55 IRES GFP stood at 50%. Besides, in assay [1], the Kd was 1400 nM.
